Consider five molecules from patent publication US20230391890A1 (CORNELL UNIVERSITY, published 2023).

Assay [1] addresses T1, purified KIAA1199/CEMIP protein (aa 1-649) (human, UniProt Q8WUJ3 31-649).
T1 construct: also called recombinant KIAA1199/CEMIP protein
T1 sequence: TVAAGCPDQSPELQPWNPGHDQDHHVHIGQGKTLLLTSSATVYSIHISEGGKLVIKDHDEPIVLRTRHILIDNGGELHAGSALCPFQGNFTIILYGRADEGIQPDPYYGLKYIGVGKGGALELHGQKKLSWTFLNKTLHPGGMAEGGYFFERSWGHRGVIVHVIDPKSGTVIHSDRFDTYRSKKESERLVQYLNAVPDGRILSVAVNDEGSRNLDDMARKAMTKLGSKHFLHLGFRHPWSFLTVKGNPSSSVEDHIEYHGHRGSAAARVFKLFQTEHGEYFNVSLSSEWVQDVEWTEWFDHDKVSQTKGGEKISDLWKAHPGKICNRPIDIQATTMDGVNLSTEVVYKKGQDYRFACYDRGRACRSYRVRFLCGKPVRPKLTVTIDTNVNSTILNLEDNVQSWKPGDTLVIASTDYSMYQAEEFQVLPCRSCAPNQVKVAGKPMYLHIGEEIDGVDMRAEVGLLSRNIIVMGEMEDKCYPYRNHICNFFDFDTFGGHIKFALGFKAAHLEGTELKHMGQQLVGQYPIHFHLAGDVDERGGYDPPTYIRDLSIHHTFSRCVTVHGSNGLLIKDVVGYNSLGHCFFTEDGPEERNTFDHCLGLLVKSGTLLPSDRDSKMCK
Description: ELISA on recombinant CEMIP, purified antibody. (In general: An ELISA detects its analyte on a solid surface through an enzyme-linked reagent.)

The target of assay [2] is T2, native CEMIP/KIAA1199 expressed on the surface of human cancer cells (human, UniProt Q8WUJ3 31-1361).
T2 construct: Endogenous CEMIP of MKN45 gastric and N2LA lung cancer cells in flow cytometry; The same entry is used for CEMIP on exosomes of brain tropic MDA-MB231 cells in the brain slice assay; also called native cell surface CEMIP/KIAA1199; CEMIP on MKN45 and N2LA cells
T2 sequence: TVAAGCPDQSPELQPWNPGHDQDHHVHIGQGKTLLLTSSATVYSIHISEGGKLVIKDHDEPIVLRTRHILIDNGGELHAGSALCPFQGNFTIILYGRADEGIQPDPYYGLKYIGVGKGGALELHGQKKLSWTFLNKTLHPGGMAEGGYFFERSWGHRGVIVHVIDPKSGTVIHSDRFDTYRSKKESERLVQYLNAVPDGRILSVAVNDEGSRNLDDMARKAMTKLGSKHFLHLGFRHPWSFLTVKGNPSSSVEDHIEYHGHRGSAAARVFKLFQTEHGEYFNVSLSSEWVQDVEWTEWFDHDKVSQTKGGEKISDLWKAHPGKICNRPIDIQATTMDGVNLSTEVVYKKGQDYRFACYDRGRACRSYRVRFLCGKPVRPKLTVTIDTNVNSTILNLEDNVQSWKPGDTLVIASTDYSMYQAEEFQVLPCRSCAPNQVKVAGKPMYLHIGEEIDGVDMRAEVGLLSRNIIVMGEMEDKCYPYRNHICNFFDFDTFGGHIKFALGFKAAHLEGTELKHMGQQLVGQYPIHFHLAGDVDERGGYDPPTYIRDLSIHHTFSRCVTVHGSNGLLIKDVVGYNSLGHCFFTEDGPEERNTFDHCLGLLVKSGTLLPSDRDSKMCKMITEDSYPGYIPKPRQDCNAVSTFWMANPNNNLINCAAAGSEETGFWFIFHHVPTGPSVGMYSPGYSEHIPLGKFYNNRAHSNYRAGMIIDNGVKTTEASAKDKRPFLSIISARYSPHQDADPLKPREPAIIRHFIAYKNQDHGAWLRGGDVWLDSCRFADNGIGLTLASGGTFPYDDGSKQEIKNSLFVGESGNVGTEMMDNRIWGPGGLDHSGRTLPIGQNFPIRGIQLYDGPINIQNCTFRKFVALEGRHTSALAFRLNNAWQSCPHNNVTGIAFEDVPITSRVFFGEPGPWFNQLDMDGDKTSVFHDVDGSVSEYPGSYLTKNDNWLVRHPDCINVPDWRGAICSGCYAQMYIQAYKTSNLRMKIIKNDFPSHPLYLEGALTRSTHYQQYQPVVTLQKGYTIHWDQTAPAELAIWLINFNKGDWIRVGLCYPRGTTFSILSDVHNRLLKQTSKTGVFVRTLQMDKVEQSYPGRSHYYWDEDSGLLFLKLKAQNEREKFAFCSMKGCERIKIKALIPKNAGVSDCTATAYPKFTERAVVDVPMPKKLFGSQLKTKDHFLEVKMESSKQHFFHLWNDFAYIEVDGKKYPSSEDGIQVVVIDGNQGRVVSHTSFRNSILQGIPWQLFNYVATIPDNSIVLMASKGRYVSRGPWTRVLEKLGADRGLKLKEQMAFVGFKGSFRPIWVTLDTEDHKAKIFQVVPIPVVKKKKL
Put plainly: flow cytometry on MKN45 cells. A general note: A flow cytometer gives signals particle by particle.

Assay [3] concerns the target T2, native CEMIP/KIAA1199 expressed on the …. Description: cell-based or functional assay.

B1: 12D08 (cAb5777) (antibody, mouse IgG2a, kappa, V domains shown)
VH: EVQLQQSGAELVKPGASVKLSCTASGFNIKDTYMHWVKQRPEQGLIWIGNIDPANGHTKYAPKFQGKATITADTSSNTAYLQLSSLTSEDTAVYYCARSNDYDVDFDYWGQGTTLTVSS
VL: DIVMSQSPSSLAVSAGEKVTMSCKSSQSLLNSRTRKNYLAWYQQKPGQSPKLLIYWASTRESGVPDRFTGSGSGTDFSLTISSVQAEDLAVYYCKQSYNLYTFGGGTKLEIKR
notes: Mouse monoclonal antibody from a hybridoma (supernatant, later purified)
With B1, the binding result in assay [1] and in assay [2] was “binds” each time.

B2: 13G04 (cAb5778) (antibody, mouse IgG1, kappa, V domains shown)
VH: EVHLQQSGPELVKPGASMKISCKASGYSFTAYTMNWVKQSHGKNLEWIGLINPYNGGTTYNQKFKGKATLTVDKSSSTAYMELLSLTSEDSAVYYCASYYGGRGWYFDVWGAGTSVTVSS
VL: DIVLTQSPASLAVSLGQRATISCRASKSVSTSGYSYVHWYQQKPGQPPKLLIYLASNLESGVPARFSGSGSGTDFTLNIHPVEEEDAATYYCQNSRELPYTFGGGTKLEMKR
notes: as for B1
Turning to B2, the binding result in assay [1] and in assay [2] was “binds” each time.

B3: 07F11C02 (cAb4853) (antibody, mouse IgG2a, kappa, V domains shown)
VH: DVQLVESGGGLVQPGGSRKLSCAASGFAFSSFGMHWVRQAPERGLEWVAYISSASNTIYYADTVKGRFTISRDNPKSTLFLQMTSLRSEDTAIYYCAKRDWDLYAMDYWGQGTSVTVSS
VL: DIVMTQSQKFLSTSVGDRVTITCKASQNVGTAVAWYQQKPGQSPELLIYSASNRHTGVPARFTGSGSGTDFTLTITNMQSEDLADYFCQQYSSSPTFGGGTKLESKR
For B3, the “GFP+ parental MDA-MB231 cells on the slice, 3D organotypic brain slice assay, CEMIP-positive exosomes pre-incubated with antibody” value in assay [3] was found to be 6 fold decrease.

B4: 12A12 (cAb5776) (antibody, mouse IgG1, kappa, V domains shown)
VH: EVQLQQSGPELVKPGVSMKISCKASGYSFTAYTMNWVKQSHGENLEWIGLINPYNGGTTYNQKFKGKATLTVDKSSSTAYMELLSLTSEDSAVYYCASYDYGYAMDYWGQGTSVTVSS
VL: DVLMTQTPLSLPVSLGDQASISCRSSQSIVHRSGNTYLEWYLQKPGQSPKLLIYKVSNRFSGVPDRFSGSGSGTDFTLKISRVEAEDLGVYYCFQGSHVPWTFGGGTKLEIKR
notes: as for B1
Take B4: the binding result in assay [1] and in assay [2] was “binds” in each case.

B5: 12D02 (cAb5775) (antibody, mouse IgG1, kappa, V domains shown)
VH: EVQLQQSGPELVKPGASMKISCKASGYSFTAYTMNWVKQSHGENLEWIGLINPYNGGTTYNQKFKGKATLTVDKSSSTAYMELLSLTSEDSAVYYCASYDYGYAMDYWGQGTSVTVSS
VL: DVLMTQTPLSLPVSLGDQASISCRSSQSIVHRNGNTYLEWYLQKPGQSPKLLIYKVSNRFSGVPDRFSGSGSGTDFTLKISRVEAEDLGVYYCFQGSHVPWTFGGGTKLEIKR
notes: as for B1
As for B5, the binding result in assay [1] and in assay [2] was “binds” each time.
